# According to patent US5739278A, “Compositions for protein tyrosine phosphatases” (University of Washington, priority 1995, dated 1998):
# Where no end group is shown, it is not given here. [ ]: non-standard residue; d: D form. pY = N[C@@H](Cc1ccc(OP(=O)(O)O)cc1)C(=O)O
# Tests used:
# Assay in all cases: Phosphatase assay with ENDY(P)INASL as substrate
# Format in all cases: biochemical
# [1] = target: T1, CD45 (Homo sapiens, UniProt P08575)
# T1 construct: CD45 were purified from placenta and spleen, respectively; from tissue; host or cells: spleen
# T1 sequence (P08575 26-1306): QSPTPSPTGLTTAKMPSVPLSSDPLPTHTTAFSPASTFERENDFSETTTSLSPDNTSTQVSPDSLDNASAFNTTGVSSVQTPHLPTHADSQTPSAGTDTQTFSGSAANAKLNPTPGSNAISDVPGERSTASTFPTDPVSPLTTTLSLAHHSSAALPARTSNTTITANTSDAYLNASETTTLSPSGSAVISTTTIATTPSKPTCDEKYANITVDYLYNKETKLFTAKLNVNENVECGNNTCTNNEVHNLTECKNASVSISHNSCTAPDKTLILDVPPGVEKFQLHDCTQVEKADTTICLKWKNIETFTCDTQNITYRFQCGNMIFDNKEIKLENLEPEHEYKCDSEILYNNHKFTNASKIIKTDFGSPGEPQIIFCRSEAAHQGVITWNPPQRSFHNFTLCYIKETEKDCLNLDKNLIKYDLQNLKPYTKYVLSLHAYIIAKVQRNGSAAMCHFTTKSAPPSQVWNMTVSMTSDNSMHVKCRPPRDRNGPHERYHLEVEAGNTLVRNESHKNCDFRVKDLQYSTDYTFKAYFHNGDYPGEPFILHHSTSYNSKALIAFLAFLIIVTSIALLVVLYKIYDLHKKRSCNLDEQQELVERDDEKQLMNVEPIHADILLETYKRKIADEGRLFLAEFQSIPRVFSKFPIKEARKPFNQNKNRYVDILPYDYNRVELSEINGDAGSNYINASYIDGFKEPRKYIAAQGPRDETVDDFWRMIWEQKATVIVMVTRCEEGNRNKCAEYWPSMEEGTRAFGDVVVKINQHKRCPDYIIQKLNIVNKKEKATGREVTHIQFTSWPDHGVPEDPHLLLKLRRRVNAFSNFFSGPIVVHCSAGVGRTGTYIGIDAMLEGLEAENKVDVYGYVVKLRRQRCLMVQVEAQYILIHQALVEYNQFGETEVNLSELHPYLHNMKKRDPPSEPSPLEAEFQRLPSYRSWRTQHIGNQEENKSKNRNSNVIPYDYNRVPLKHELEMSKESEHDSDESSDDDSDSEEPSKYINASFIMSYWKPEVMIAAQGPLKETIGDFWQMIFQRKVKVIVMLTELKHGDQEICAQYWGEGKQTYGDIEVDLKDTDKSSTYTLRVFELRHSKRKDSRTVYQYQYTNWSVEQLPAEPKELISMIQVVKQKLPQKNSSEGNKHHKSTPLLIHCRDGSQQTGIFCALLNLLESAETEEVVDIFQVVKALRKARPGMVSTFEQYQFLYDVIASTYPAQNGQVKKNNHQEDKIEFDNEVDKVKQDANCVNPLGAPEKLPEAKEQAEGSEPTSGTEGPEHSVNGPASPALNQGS
# Description: (§1) The tyrosine phosphatases TC.PTP, TCΔC11.PTP, and RPTPα were purified from infected Sf9 cells as described recently (Zander et al., Biochemistry 30: 6964-6970, 1991; Daum et al., J. Biol. Chem. 266: 12211-12215, 1991). The 37 kDa form of PTP1B and CD45 were purified from placenta and spleen, respectively (according to Tonks et al., J. Biol. Chem. 263: 6722-6730, 1988; Tonks et al., Biochemistry 27: 8695-8701, 1988).
# (§2) Phosphatase assays with ENDY(P)INASL were performed in buffer M6. Aliquots of 30 μl or 60 μl containing the phosphopeptide, the phosphatase (-beads) and effectors were incubated for 10 minutes at 30° C. The reaction was stopped by adding 200 μl of a suspension of 10% activated, acid-washed Norit A charcoal (v/v) in 0.9N HCl, 0.1M pyrophosphate and 2 mM NaH2 PO4 (according to Streuli et al., Proc. Natl. Acad. Sci. USA 86: 8698-8702, 1989). The mixture was cleared by 10-minute centrifugation and the radioactivity of 150 μl of the supernate was determined. Assays with MBP and RCML were performed as described in Tonks et al., J. Biol. Chem. 263: 6722-6730, 1988. Protein concentration was determined with BSA as standard (Bradford, Anal. Biochem. 72: 248-254, 1976).
# [2] = target: T2, PTP1B (Homo sapiens, UniProt P18031); settings: non-linear regression of substrate saturation curves, mean of two experiments
# T2 construct: The 37 kDa form of PTP1B; from tissue; host or cells: placenta
# T2 sequence (P18031 1-321 limits assumed): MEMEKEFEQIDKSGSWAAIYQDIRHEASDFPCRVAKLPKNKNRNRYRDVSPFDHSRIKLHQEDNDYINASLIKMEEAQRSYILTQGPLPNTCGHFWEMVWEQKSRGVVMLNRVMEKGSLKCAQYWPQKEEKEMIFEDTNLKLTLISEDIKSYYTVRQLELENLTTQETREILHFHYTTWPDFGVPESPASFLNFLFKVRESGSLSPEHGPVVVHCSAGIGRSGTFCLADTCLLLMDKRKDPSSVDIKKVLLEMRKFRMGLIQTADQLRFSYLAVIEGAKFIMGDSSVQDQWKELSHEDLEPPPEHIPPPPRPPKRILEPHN
# Description: as §1, §2
# [3] = target: T3, RPTPα (Homo sapiens, UniProt P18433)
# T3 construct: made in house; host or cells: Sf9 cells (baculovirus)
# T3 sequence (P18433 20-802): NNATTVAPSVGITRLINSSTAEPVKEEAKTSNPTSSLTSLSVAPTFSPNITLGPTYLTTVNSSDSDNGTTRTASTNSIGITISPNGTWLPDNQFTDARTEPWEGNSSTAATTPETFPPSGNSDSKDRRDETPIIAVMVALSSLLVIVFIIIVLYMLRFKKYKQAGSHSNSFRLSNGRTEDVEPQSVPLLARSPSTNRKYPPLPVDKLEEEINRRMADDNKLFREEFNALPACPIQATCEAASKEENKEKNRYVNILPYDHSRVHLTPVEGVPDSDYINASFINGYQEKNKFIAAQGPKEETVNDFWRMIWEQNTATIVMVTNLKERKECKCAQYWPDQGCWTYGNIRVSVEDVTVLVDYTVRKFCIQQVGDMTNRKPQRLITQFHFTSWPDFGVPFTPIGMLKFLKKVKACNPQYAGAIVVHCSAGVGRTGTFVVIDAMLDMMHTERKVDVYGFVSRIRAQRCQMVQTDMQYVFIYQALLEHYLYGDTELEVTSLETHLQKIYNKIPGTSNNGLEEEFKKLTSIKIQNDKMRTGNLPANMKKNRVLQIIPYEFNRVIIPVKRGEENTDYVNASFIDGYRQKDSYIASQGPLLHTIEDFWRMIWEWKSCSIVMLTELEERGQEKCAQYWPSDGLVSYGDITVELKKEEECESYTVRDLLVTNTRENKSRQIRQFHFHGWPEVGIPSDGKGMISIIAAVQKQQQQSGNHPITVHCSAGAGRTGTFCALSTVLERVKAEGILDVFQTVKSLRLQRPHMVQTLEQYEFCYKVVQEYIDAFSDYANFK
# Description: as §1, §2
# [4] = target: T4, TCΔC11.PTP (Homo sapiens, UniProt P17706)
# T4 construct: both the wild type and truncated forms of the T-cell phosphatase; made in house; host or cells: Sf9 cells (baculovirus)
# T4 sequence (P17706 1-317 limits assumed): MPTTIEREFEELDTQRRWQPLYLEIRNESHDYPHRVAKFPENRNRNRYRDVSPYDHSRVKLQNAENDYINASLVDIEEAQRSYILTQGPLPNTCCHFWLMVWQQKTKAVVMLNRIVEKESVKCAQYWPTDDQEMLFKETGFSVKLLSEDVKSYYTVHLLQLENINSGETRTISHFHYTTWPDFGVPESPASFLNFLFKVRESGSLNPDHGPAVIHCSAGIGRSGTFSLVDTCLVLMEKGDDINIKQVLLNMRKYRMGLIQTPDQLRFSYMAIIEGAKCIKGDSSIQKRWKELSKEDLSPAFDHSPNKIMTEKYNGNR
# Description: as §1, §2
# [5] = non-linear regression of substrate saturation curves, mean of two experiments
# [6] = one unit = release of 1 nmol phosphate per minute
substance,measurement,setting,value
"ENDY(P)INASL: ENDYINASL phosphorylated on its tyrosine residue (32P), used as PTP substrate (END[pY]INASL; also: phosphate 32P-labelled)",Km,[1]; [5],13.8 ± 0.28 µM
same,Vmax,[1]; [6],1622 +/- 23 U/mg
same,Km,[2],0.8 ± 0.45 µM
same,Km,[3]; [5],32.5 ± 3.06 µM
same,Vmax,[3]; [6],1038 +/- 88 U/mg
same,Km,[4]; [5],1 ± 0.4 µM
same,Vmax,[4]; [6],13374 +/- 970 U/mg
